This note sets out measurements from patent publication CN116745314A (VIR BIOTECHNOLOGY CO LTD, dated 2023).

This test addresses spike glycoprotein of live SARS-CoV-2 (isolate USA-WA1/2020) (SARS-CoV-2, UniProt P0DTC2 14-1273). Briefly: cell-based or functional assay.

B1: S2E12 (antibody, V domains shown)
VH: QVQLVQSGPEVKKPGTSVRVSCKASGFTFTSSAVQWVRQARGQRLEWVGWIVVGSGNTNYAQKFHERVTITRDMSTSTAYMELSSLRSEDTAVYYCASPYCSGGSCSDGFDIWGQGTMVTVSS
VL: DIVLTQTPGTLSLSPGERATLSCRASQSVSSSYLAWYQQKPGQAPRLLIYGASSRATGIPDRFSGSGSGTDFTLTISRLEPEDFAVYYCQQYVGLTGWTFGQGTKVEIK
In the case of B1, the “EC50 (live SARS-CoV-2 neutralisation)” value turned out to be 5 ng/mL and the “IC50 (live SARS-CoV-2 neutralisation)” value turned out to be 5.41 ng/mL.
